# In publication PMC2034677 (Molecular microbiology, 2002):
# B1: GST–endoE fusion protein (recombinant bacteriophage K1E endosialidase, wild type) (enzyme, UniProt P49714 1-706, looked up)
# chain: MIQRLGSSLVKFKSKIAGAIWRNLDDKLTEVVSLKDFGAKGDGKTNDQDAVNAAMASGKRIDGAGATYKVSSLPDMERFYNTRFVWERLAGQPLYYVSKGFINGELYKITDNPYYNAWPQDKAFVYENVIYAPYMGSDRHGVSRLHVSWVKSGDDGQTWSTPEWLTDMHPDYPTVNYHCMSMGVCRNRLFAMIETRTLAKNELTNCALWDRPMSRSLHLTGGITKAANQRYATIHVPDHGLFVGDFVNFSNSAVTGVSGDMKVATVIDKDNFTVLTPNQQTSDLNNAGKNWHMGTSFHKSPWRKTDLGLIPRVTEVHSFATIDNNGFVMGYHQGDVAPREVGLFYFPDAFNSPSNYVRRQIPSEYEPDAAEPCIKYYDGVLYLITRGTRGDRLGSSLHRSRDIGQTWESLRFPHNVHHTTLPFAKVGDDLIMFGSERAENEWEAGAPDDRYKASYPRTFYARLNVNNWNADDIEWVNITDQIYQGDIVNSSVGVGSVVVKDSFIYYIFGGENHFNPMTYGDNKDKDPFKGHGHPTDIYCYKMQIANDNRVSRKFTYGATPGQAIPTFMGTDGIRNIPAPLYFSDNIVTEDTKVGHLTLKASTSANIRSEMQMEGEYGFIGKSVPKDKPTGQRLIICGGEGTSSSSGAQITLHGSNSSNAKRITYNGNEHLFQGAPIMPAVDNQFAAGGPSNRFTTIYLGSDPVTTS
# Target: the molecule itself
# Assay: native gel or EMSA
protein,measurement,value
B1,stoichiometry N,3
